Source: the supplement of paper PMC5998384

Columns and labels:
HeLa Kyoto [1] = assay: solubility change mitosis vs G1/S (difference of NP-40 vs SDS log2 ratios) (log2 ratio difference); higher = more soluble in mitosis
HeLa Kyoto [2] = assay: solubility in G1/S (NP-40 vs SDS abundance) (log2 ratio); higher = more soluble; conditions: cell cycle stage: G1/S
HeLa Kyoto [3] = assay: thermal stability score vs G1/S (z-score of summed log2 fold changes over temperatures); higher = more thermally stable than in G1/S
HeLa Kyoto [4] = assay: melting temperature (median over replicates), in situ; higher = more thermally stable
[5] = cell cycle stage: early G1 (4.5 h after nocodazole release)
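Wherever melting temperature (median over replicates), in situ is given: HeLa Kyoto cells synchronized by double thymidine or nocodazole block, proteins quantified by TMT10plex mass spectrometry, three independent biological replicates.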
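Wherever solubility change mitosis vs G1/S (difference of NP-40 vs SDS log2 ratios) is given: synchronized HeLa Kyoto cells (double thymidine block for G1/S, nocodazole release for mitosis), protein amounts in NP-40 versus SDS lysates quantified by mass spectrometry, three biological replicates.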
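Wherever solubility in G1/S (NP-40 vs SDS abundance) is given: HeLa Kyoto cells arrested at G1/S by double thymidine block, proteins quantified by TMT10plex mass spectrometry in mild NP-40 versus SDS extracts, three biological replicates.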
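Wherever thermal stability score vs G1/S (z-score of summed log2 fold changes over temperatures) is given: synchronized HeLa Kyoto cells, proteins quantified by TMT10plex mass spectrometry, three biological replicates, mitosis taken 0.5 h after nocodazole release, G1/S directly after double thymidine block.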

| Sequence | solubility change mitosis (log2) (HeLa Kyoto [1]) | solubility in G1/S (log2) (HeLa Kyoto [2]) | thermal stability score (HeLa Kyoto [3]; [5]) | thermal stability score (HeLa Kyoto [3]; cell cycle stage: mitosis) | melting temperature (HeLa Kyoto [4]; cell cycle stage: G1/S) | melting temperature (HeLa Kyoto [4]; cell cycle stage: mitosis) |
| --- | --- | --- | --- | --- | --- | --- |
| MDFNMKKLASDAGIFFTRAVQFTEEKFGQAEKTELDAHFENLLARADSTKNWTEKILRQTEVLLQPNPSARVEEFLYEKLDRKVPSRVTNGELLAQYMADAASELGPTTPYGKTLIKVAEAEKQLGAAERDFIHTASISFLTPLRNFLEGDWKTISKERRLLQNRRLDLDACKARLKKAKAAEAKATTVPDFQETRPRNYILSASASALWNDEVDKAEQELRVAQTEFDRQAEVTRLLLEGISSTHVNHLRCLHEFVKSQTTYYAQCYRHMLDLQKQLGRFPGTFVGTTEPASPPLSSTSPTTAAATMPVVPSVASLAPPGEASLCLEEVAPPASGTRKARVLYDYEAADSSELALLADELITVYSLPGMDPDWLIGERGNKKGKVPVTYLELLS [SH3GLB2] | -0.0988 | 0.445 | -1.15 | 0.211 | 49.7 °C | 50.1 °C |
| MDFSKFLADDFDVKEWINAAFRAGSKEAASGKADGHAATLVMKLQLFIQEVNHAVEETSHQALQNMPKVLRDVEALKQEASFLKEQMILVKEDIKKFEQDTSQSMQVLVEIDQVKSRMQLAAESLQEADKWSTLSADIEETFKTQDIAVISAKLTGMQNSLMMLVDTPDYSEKCVHLEALKNRLEALASPQIVAAFTSQAVDQSKVFVKVFTEIDRMPQLLAYYYKCHKVQLLAAWQELCQSDLSLDRQLTGLYDALLGAWHTQIQWATQVFQKPHEVVMVLLIQTLGALMPSLPSCLSNGVERAGPEQELTRLLEFYDATAHFAKGLEMALLPHLHEHNLVKVTELVDAVYDPYKPYQLKYGDMEESNLLIQMSAVPLEHGEVIDCVQELSHSVNKLFGLASAAVDRCVRFTNGLGTCGLLSALKSLFAKYVSDFTSTLQSIRKKCKLDHIPPNSLFQEDWTAFQNSIRIIATCGELLRHCGDFEQQLANRILSTAGKYLSDSCSPRSLAGFQESILTDKKNSAKNPWQEYNYLQKDNPAEYASLMEILYTLKEKGSSNHNLLAAPRAALTRLNQQAHQLAFDSVFLRIKQQLLLISKMDSWNTAGIGETLTDELPAFSLTPLEYISNIGQYIMSLPLNLEPFVTQEDSALELALHAGKLPFPPEQGDELPELDNMADNWLGSIARATMQTYCDAILQIPELSPHSAKQLATDIDYLINVMDALGLQPSRTLQHIVTLLKTRPEDYRQVSKGLPRRLATTVATMRSVNY [COG7] | -0.0565 | 0.165 | 0.766 | 1.31 | 48.8 °C | 48.7 °C |
| MDGAAGPGDGPAREALQSLSQRLRVQEQEMELVKAALAEALRLLRLQVPPSSLQGSGTPAPPGDSLAAPPGLPPTCTPSLVSRGTQTETEVELKSSPGPPGLSNGPPAPQGASEEPSGTQSEGGGSSSSGAGSPGPPGILRPLQPPQRADTPRRNSSSSSSPSERPRQKLSRKAISSANLLVRSGSTESRGGKDPLSSPGGPGSRRSNYNLEGISVKMFLRGRPITMYIPSGIRSLEELPSGPPPETLSLDWVYGYRGRDSRSNLFVLRSGEVVYFIACVVVLYRPGGGPGGPGGGGQRHYRGHTDCVRCLAVHPDGVRVASGQTAGVDKDGKPLQPVVHIWDSETLLKLQEIGLGAFERGVGALAFSAADQGAFLCVVDDSNEHMLSVWDCSRGMKLAEIKSTNDSVLAVGFNPRDSSCIVTSGKSHVHFWNWSGGVGVPGNGTLTRKQGVFGKYKKPKFIPCFVFLPDGDILTGDSEGNILTWGRSPSDSKTPGRGGAKETYGIVAQAHAHEGSIFALCLRRDGTVLSGGGRDRRLVQWGPGLVALQEAEIPEHFGAVRAIAEGLGSELLVGTTKNALLRGDLAQGFSPVIQGHTDELWGLCTHPSQNRFLTCGHDRQLCLWDGESHALAWSIDLKETGLCADFHPSGAVVAVGLNTGRWLVLDTETREIVSDVIDGNEQLSVVRYSPDGLYLAIGSHDNVIYIYSVSSDGAKSSRFGRCMGHSSFITHLDWSKDGNFIMSNSGDYEILYWDVAGGCKQLKNRYESRDREWATYTCVLGFHVYGVWPDGSDGTDINSLCRSHNERVVAVADDFCKVHLFQYPCARAKAPSRMYGGHGSHVTSVRFTHDDSHLVSLGGKDASIFQWRVLGAGGAGPAPATPSRTPSLSPASSLDV [EML3] | -0.215 | 0.0248 | -0.497 | 0.0727 | 51.6 °C | 52 °C |
| MDGDGDPESVGQPEEASPEEQPEEASAEEERPEDQQEEEAAAAAAYLDELPEPLLLRVLAALPAAELVQACRLVCLRWKELVDGAPLWLLKCQQEGLVPEGGVEEERDHWQQFYFLSKRRRNLLRNPCGEEDLEGWCDVEHGGDGWRVEELPGDSGVEFTHDESVKKYFASSFEWCRKAQVIDLQAEGYWEELLDTTQPAIVVKDWYSGRSDAGCLYELTVKLLSEHENVLAEFSSGQVAVPQDSDGGGWMEISHTFTDYGPGVRFVRFEHGGQDSVYWKGWFGARVTNSSVWVEP [FBXO2] | -0.206 | -0.047 | 0.487 | -0.484 | 51.9 °C | 50.8 °C |
| MDGETAEEQGGPVPPPVAPGGPGLGGAPGGRREPKKYAVTDDYQLSKQVLGLGVNGKVLECFHRRTGQKCALKLLYDSPKARQEVDHHWQASGGPHIVCILDVYENMHHGKRCLLIIMECMEGGELFSRIQERGDQAFTEREAAEIMRDIGTAIQFLHSHNIAHRDVKPENLLYTSKEKDAVLKLTDFGFAKETTQNALQTPCYTPYYVAPEVLGPEKYDKSCDMWSLGVIMYILLCGFPPFYSNTGQAISPGMKRRIRLGQYGFPNPEWSEVSEDAKQLIRLLLKTDPTERLTITQFMNHPWINQSMVVPQTPLHTARVLQEDKDHWDEVKEEMTSALATMRVDYDQVKIKDLKTSNNRLLNKRRKKQAGSSSASQGCNNQ [MAPKAPK3] | -0.141 | 0.454 | 0.292 | 1.45 | 49.1 °C | 51.2 °C |
| MDGFAGSLDDSISAASTSDVQDRLSALESRVQQQEDEITVLKAALADVLRRLAISEDHVASVKKSVSSKGQPSPRAVIPMSCITNGSGANRKPSHTSAVSIAGKETLSSAAKSGTEKKKEKPQGQREKKEESHSNDQSPQIRASPSPQPSSQPLQIHRQTPESKNATPTKSIKRPSPAEKSHNSWENSDDSRNKLSKIPSTPKLIPKVTKTADKHKDVIINQEGEYIKMFMRGRPITMFIPSDVDNYDDIRTELPPEKLKLEWAYGYRGKDCRANVYLLPTGKIVYFIASVVVLFNYEERTQRHYLGHTDCVKCLAIHPDKIRIATGQIAGVDKDGRPLQPHVRVWDSVTLSTLQIIGLGTFERGVGCLDFSKADSGVHLCIIDDSNEHMLTVWDWQKKAKGAEIKTTNEVVLAVEFHPTDANTIITCGKSHIFFWTWSGNSLTRKQGIFGKYEKPKFVQCLAFLGNGDVLTGDSGGVMLIWSKTTVEPTPGKGPKGVYQISKQIKAHDGSVFTLCQMRNGMLLTGGGKDRKIILWDHDLNPEREIEVPDQYGTIRAVAEGKADQFLVGTSRNFILRGTFNDGFQIEVQGHTDELWGLATHPFKDLLLTCAQDRQVCLWNSMEHRLEWTRLVDEPGHCADFHPSGTVVAIGTHSGRWFVLDAETRDLVSIHTDGNEQLSVMRYSIDGTFLAVGSHDNFIYLYVVSENGRKYSRYGRCTGHSSYITHLDWSPDNKYIMSNSGDYEILYWDIPNGCKLIRNRSDCKDIDWTTYTCVLGFQVFGVWPEGSDGTDINALVRSHNRKVIAVADDFCKVHLFQYPCSKAKAPSHKYSAHSSHVTNVSFTHNDSHLISTGGKDMSIIQWKLVEKLSLPQNETVADTTLTKAPVSSTESVIQSNTPTPPPSQPLNETAEEESRISSSPTLLENSLEQTVEPSEDHSEEESEEGSGDLGEPLYEEPCNEISKEQAKATLLEDQQDPSPSS [EML4] | -0.0416 | -0.0517 | -1.11 | -1.34 | 51 °C | 50.3 °C |
| MDGGDDGNLIIKKRFVSEAELDERRKRRQEEWEKVRKPEDPEECPEEVYDPRSLYERLQEQKDRKQQEYEEQFKFKNMVRGLDEDETNFLDEVSRQQELIEKQRREEELKELKEYRNNLKKVGISQENKKEVEKKLTVKPIETKNKFSQAKLLAGAVKHKSSESGNSVKRLKPDPEPDDKNQEPSSCKSLGNTSLSGPSIHCPSAAVCIGILPGLGAYSGSSDSESSSDSEGTINATGKIVSSIFRTNTFLEAP [FAM192A] | -0.000768 | 0.194 | -1.68 | -2.27 | 57.6 °C |  |
| MDGIVTEVAVGVKRGSDELLSGSVLSSPNSNMSSMVVTANGNDSKKFKGEDKMDGAPSRVLHIRKLPGEVTETEVIALGLPFGKVTNILMLKGKNQAFLELATEEAAITMVNYYSAVTPHLRNQPIYIQYSNHKELKTDNTLNQRAQAVLQAVTAVQTANTPLSGTTVSESAVTPAQSPVLRIIIDNMYYPVTLDVLHQIFSKFGAVLKIITFTKNNQFQALLQYGDPVNAQQAKLALDGQNIYNACCTLRIDFSKLVNLNVKYNNDKSRDYTRPDLPSGDGQPALDPAIAAAFAKETSLLAVPGALSPLAIPNAAAAAAAAAAGRVGMPGVSAGGNTVLLVSNLNEEMVTPQSLFTLFGVYGDVQRVKILYNKKDSALIQMADGNQSQLAMNHLNGQKMYGKIIRVTLSKHQTVQLPREGLDDQGLTKDFGNSPLHRFKKPGSKNFQNIFPPSATLHLSNIPPSVAEEDLRTLFANTGGTVKAFKFFQDHKMALLQMATVEEAIQALIDLHNYNLGENHHLRVSFSKSTI [PTBP2] | -0.0237 | 0.308 | 0.234 | 0.47 | 48.8 °C | 49 °C |
| MDGKRRPGPGPGVPPKRARGGLWDDDDAPRPSQFEEDLALMEEMEAEHRLQEQEEEELQSVLEGVADGQVPPSAIDPRWLRPTPPALDPQTEPLIFQQLEIDHYVGPAQPVPGGPPPSRGSVPVLRAFGVTDEGFSVCCHIHGFAPYFYTPAPPGFGPEHMGDLQRELNLAISRDSRGGRELTGPAVLAVELCSRESMFGYHGHGPSPFLRITVALPRLVAPARRLLEQGIRVAGLGTPSFAPYEANVDFEIRFMVDTDIVGCNWLELPAGKYALRLKEKATQCQLEADVLWSDVVSHPPEGPWQRIAPLRVLSFDIECAGRKGIFPEPERDPVIQICSLGLRWGEPEPFLRLALTLRPCAPILGAKVQSYEKEEDLLQAWSTFIRIMDPDVITGYNIQNFDLPYLISRAQTLKVQTFPFLGRVAGLCSNIRDSSFQSKQTGRRDTKVVSMVGRVQMDMLQVLLREYKLRSYTLNAVSFHFLGEQKEDVQHSIITDLQNGNDQTRRRLAVYCLKDAYLPLRLLERLMVLVNAVEMARVTGVPLSYLLSRGQQVKVVSQLLRQAMHEGLLMPVVKSEGGEDYTGATVIEPLKGYYDVPIATLDFSSLYPSIMMAHNLCYTTLLRPGTAQKLGLTEDQFIRTPTGDEFVKTSVRKGLLPQILENLLSARKRAKAELAKETDPLRRQVLDGRQLALKVSANSVYGFTGAQVGKLPCLEISQSVTGFGRQMIEKTKQLVESKYTVENGYSTSAKVVYGDTDSVMCRFGVSSVAEAMALGREAADWVSGHFPSPIRLEFEKVYFPYLLISKKRYAGLLFSSRPDAHDRMDCKGLEAVRRDNCPLVANLVTASLRRLLIDRDPEGAVAHAQDVISDLLCNRIDISQLVITKELTRAASDYAGKQAHVELAERMRKRDPGSAPSLGDRVPYVIISAAKGVAAYMKSEDPLFVLEHSLPIDTQYYLEQQLAKPLLRIFEPILGEGRAEAVLLRGDHTRCKTVLTGKVGGLLAFAKRRNCCIGCRTVLSHQGAVCEFCQPRESELYQKEVSHLNALEERFSRLWTQCQRCQGSLHEDVICTSRDCPIFYMRKKVRKDLEDQEQLLRRFGPPGPEAW [POLD1] | -0.101 | -0.0376 | 5.56 | 6.68 | 48.3 °C | 49.1 °C |
